Laboratory results as given in the supplement of paper PMC9170038.

Tested on: MS2 coat protein
Assay: apparent KD of MS2 coat protein; designed switch direction (-1 OFF switch, 1 ON switch): -1; higher = weaker reporter binding
In short: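 SNAP-549-labelled MS2 coat protein was titrated, doubling from 0.7 or 1.5 nM to 3 µM, over designed RNA switches transcribed on Illumina chips by stalled E. coli RNA polymerase. Runs were done without input, with 200 uM small-molecule ligand, or with an oligonucleotide input. Apparent KD is the per-design median over clusters of curve-fitted normalised fluorescence.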

[1] = Eterna round: R95, input ligand: FMN 200 uM
[2] = Eterna round: R95, input ligand: microRNA oligo, concentration not stated
[3] = Eterna round: R95, input ligand: none
[4] = input ligand: microRNA oligo, concentration not stated

Row | Sequence | apparent KD of MS2 coat protein [1] | apparent KD of MS2 coat protein [2] | apparent KD of MS2 coat protein [3] | apparent KD of MS2 coat protein (input ligand: FMN 200 uM) | apparent KD of MS2 coat protein (input ligand: none) | apparent KD of MS2 coat protein [4]
1 | GGUAGUAUGAGUAGUCCUCAUUGAAGAGAUUAGUAAGAAACAUGAGGAUCACCCAUGUUAGAACAAGCUUUUGCUCA [JR_Sv3TOV2_Sub004] (puzzle: Sensor v3, turn-off variant 2) | 113 nM | 45.7 nM | 142 nM |  |  | 
2 | AAAUGACAUUAGGAUAUGUAACGCGGUUGCCGCACAGAAGGGAUGACUUGAGGAUCACCCAAGUGACCCAAGGA [Tixebion] (Eterna round: R97, puzzle: Exclusion 6) |  |  |  | 26.4 nM | 28.2 nM | 
3 | UCUUAUUGCAAGGAUAUGCAAAUUAUUAUUAAAGCAGAAGGUGCAACAUGAGGAUCACCCAUGUUUCCGGGAAA [JR_E6_Sub040] (puzzle: Exclusion 6) |  | 25 nM |  |  |  | 
4 | ACAAACAGCUGAGGAUAUCACGAGCAAGGCCAGUGAGAAGGUAGCUCAAACAUGAGGAUCACCCAUGUUAAACUUCCUCAUGCG [Raisorar] (Eterna round: R96, puzzle: Exclusion NG 1) |  |  |  | 13.7 nM | 17.7 nM | 10.4 nM
5 | UAUGUGUGAGGAUAUGGUAAAGAUAAGAUGAUGAAAGAACUCCAGAAGGCACAUGAGGAUCACCCAUGUAGAUG [JL-ex4-2.10 Jieux mod] (puzzle: Exclusion 4) | 53.8 nM | 37.2 nM | 32.2 nM |  |  | 
6 | UAAAUGUGAGGAUAUCAGGUGUGCUAGCAUACUGGUACAUCUGAGAAGGCACAUGAGGAUCACCCAUGUUCCUU [Mat - Exclusion 4 - Mod of JL - D52] (puzzle: Exclusion 4) |  | 16.7 nM |  |  |  | 
7 | GUCAGCUCGUGAGGAUAUACAUGAUAGAUCGAUUAAUUAAUUAAUUUAACAUGAGGAUCACCCAUGUAGAAGGUACGAGCUGAU [ENG2/1-C2] (Eterna round: R96, puzzle: Exclusion NG 2) |  |  |  |  |  | 40.1 nM
8 | UAUUUAUAGCAAGGAUAUGAUUAUUAUUAUUUAUCAGAAGGUGCACAUGAGGAUCACCCAUGUUUUAUAUAUAAUAAUUUAAUU [Title] (Eterna round: R96, puzzle: Exclusion NG 1) |  |  |  |  |  | 82.5 nM
9 | GCAGAAUGAGUUAGGAUAUGAUGAUUUUUCGGAUAUCAGAAGGAACUUGAGGAUCACCCAAGUUAAGAUAGGGU [JR_BMEx4_Sub066] (Eterna round: R97, puzzle: Brourd's mod of Exclusion 4) |  |  |  | 258 nM | 170 nM | 
10 | CAGUACUGAGGAUAUACAUGAGGAUCACCCAUGUGUUCGAGCUAGGAAACUAGCAAAAGUAGAAGGCAGUACUG [salish99_ex3_r3_080] (puzzle: Exclusion 3) | 85.2 nM | 15.4 nM | 14.9 nM |  |  | 
11 | GCUCGCGGGCAAGGAUAUCCUACGCUGUUCUGGUUCGUGUCUGUUACAUGAGGAUCACCCAUGUGGGAGAAGGUGCACCAGGGC [Design 48] (Eterna round: R96, puzzle: Exclusion NG 2) |  |  |  | 13.7 nM | 14.7 nM | 9.98 nM
12 | ACAUGUUGUCCAUGAUAUUACAUGAGGAUCACCCAUGUUAUGGCGAUUUUGAUGUGUAAGUUUGUUGCUCGUCUUAU [JR_STOV1_Sub061] (Eterna round: R97, puzzle: Sensor, turn-off variant 1) |  |  |  | 19.2 nM | 20.6 nM | 
13 | CCCAUGUCAGGAUAUCUAAGAGAGGGCCAGCCCUCUCCUCCGGAGAAGGGACAUGAGGAUCACCCAUGUAAAAC [Biedle] (puzzle: Exclusion 4) |  | 93.3 nM |  |  |  | 
14 | AACCUGAGGCUUUGCUUUAGGUGUACAUGAGGAUCACCCAUGUAGGAUAUGGUAGGCUUUGCUUACCAGAAGGACAUGUUAAUU [JL ENG3 1.11] (Eterna round: R96, puzzle: Exclusion NG 3) |  |  |  | 201 nM | 47.1 nM | 48.9 nM
15 | GCGACACGAGGAUAUCGGGUCUCUAACAUGAGGAUCACCCAUGUGGCGGCAGGCGUAAGACGAGAAGGCGUAUUCA [Eternabot (L2) Solution 65] (Eterna round: R97, puzzle: Exclusion 5) |  |  |  | 26.6 nM | 34.3 nM | 
16 | GCAGGAUAAGUGAGGAUAUACCUAUGGAUACAUAGGUAGAAGGCACAUGAGGAUCACCCAUGUUCCUAACCUGC [Fiskers BMX 4 - 68] (puzzle: Brourd's mod of Exclusion 4) | 70.9 nM | 12.8 nM | 15.1 nM |  |  | 

Row | Sequence | apparent KD of MS2 coat protein [1] | apparent KD of MS2 coat protein [2] | apparent KD of MS2 coat protein [3] | apparent KD of MS2 coat protein (input ligand: FMN 200 uM) | apparent KD of MS2 coat protein (input ligand: none) | apparent KD of MS2 coat protein [4]
17 | CUAGUCCGAGGAUAUAUAUUGUGAAACAUGAGGAUCACCCAUGUUAUAAUAUGGAAAUAAAUAGAAGGCGGACUAG [Mat - Exclusion 5 - JL mod - D57] (puzzle: Exclusion 5) | 23.3 nM | 38.5 nM | 18.8 nM |  |  | 
18 | UCUGGUCGAGGAUAUACAUGAGGAUCACCCAUGUGGUCACGUGACUUCGGUCACGAAUGUAGAAGGCGACCAGA [E3/3-A6] (Eterna round: R97, puzzle: Exclusion 3) |  |  |  | 26.7 nM | 51 nM | 
19 | GUCACAUGGGUGUAGAAUCACAUGAGGAUCACCCAUGUGACUAACAAGCUUUUUGCUCGUCUUAUGUCUAUGUGAAA [Stov1/17-A1] (Eterna round: R97, puzzle: Sensor, turn-off variant 1) |  |  |  | 47.4 nM | 40.5 nM | 
20 | UUUGUCUGUGUGAGGAUAUACUUGUUUGGGUUUUUGUAGAAGGCACAUGAGGAUCACCCAUGUAUUUUGUUGUG [JR_BME4_Sub017] (puzzle: Brourd's mod of Exclusion 4) |  | 49.7 nM |  |  |  | 
21 | GCUGCGCGAGGAUAUGCGGUUUGUGCUUUGGCCCGUGGCGUACAUGAGGAUCACCCAUGUAGAAGGCGUGUGGG [Apr-15 SS2-53] (puzzle: Exclusion 2) |  | 18.1 nM |  |  |  | 
22 | ACGCAUUGCCUUUGGUAGUGCGUUACAUGAGGAUCACCCAUGUAGGAUAUGGUAGGCUUUGCUUACCAGAAGGACAUGAUAAUU [JL ENG3 1.02] (Eterna round: R96, puzzle: Exclusion NG 3) |  |  |  | 195 nM | 37.4 nM | 29.1 nM
23 | AUUAAAGACCGAGGAUAUCGAGGAAAUACACUGCGAGAAGGCGGGUACUCGGACGAUUCGACAUGAGGAUCACCCAUGUGCACA [Tixequ] (Eterna round: R96, puzzle: Exclusion NG 1) |  |  |  | 26.7 nM | 25.3 nM | 18.9 nM
24 | GCGCCAUCGUGAGAUGGCGUAAUUACAUGAGGAUCACCCAUGUAGGAUAUCGAUUGCUUUGCAGUCGAGAAGGGCAUGUAUAAU [JL ENG3 3.94] (Eterna round: R96, puzzle: Exclusion NG 3) |  |  |  | 45 nM | 37.9 nM | 26.5 nM
25 | UAACGGGCUUCUUCGUUUACAACAUGAGGAUCACCCAUGUUCGAGGAUAUCCACUAAGCUCUUCAGGAGAAGGCGAACAUAAUG [Rizaoran] (Eterna round: R96, puzzle: Exclusion NG 3) |  |  |  | 37.2 nM | 14.6 nM | 15.1 nM
26 | CCGCUGUGAGGAUAUUAGUAGUAGUCAGAAAAGACUAUUACUGAGAAGGCACAUGAGGAUCACCCAUGUCGCGG [Mat - Exclusion 4 - Eli Mod - D49] (Eterna round: R97, puzzle: Exclusion 4) |  |  |  | 39.7 nM | 28.8 nM | 
27 | CCGGCUGCUGUGAGGAUAUGCCCGCGCGCCCGCGGGCAGAAGGCACAUGAGGAUCACCCAUGUCCUGCGGUCCC [salish99_bmx4_r4_120] (Eterna round: R97, puzzle: Brourd's mod of Exclusion 4) |  |  |  | 122 nM | 24.1 nM | 
28 | UACAUGAGGAUCACCCAUGUUUUGUCGUGUAUGGUAUUUAUCUAGGAUAUCAAUGGAUUUAUUUAUGAGAAGGAGAAUAUUAAU [JMF's solution 38] (Eterna round: R96, puzzle: Exclusion NG 3) |  |  |  | 39.6 nM | 32.3 nM | 25.6 nM
29 | GCCGAAAAUGUGAGGAUAUACCUAUGGAUACAUAGGUAGAAGGCACAUGAGGAUCACCCAUGUCUAAUAACGGC [Eli bmx4 4.26] (Eterna round: R97, puzzle: Brourd's mod of Exclusion 4) |  |  |  | 521 nM | 212 nM | 
30 | UAUCGGCGGACCGAGGCUUUUUGCUCGUCUUAUGCUACGACAUGAGGAUCACCCAUGUGGUGGUGGUCCGUUGUAGU [JL ViennaUCT Bitein mod 8] (puzzle: Sensor v3, turn-off variant 2) | 123 nM | 15.2 nM | 107 nM |  |  | 
31 | GGAACGCGAGGAUAUACAUAGCCGGAAACGGCAAUAGCCUCACAUGAGGAUCACCCAUGUAGAAGGCGCGGAGA [AK-MS2ROC-r4-exclusion2-24] (Eterna round: R97, puzzle: Exclusion 2) |  |  |  | 119 nM | 17.2 nM | 
